Data on 19 sequences can be found in the supplement of paper PMC9170038.

In the data set the test system is MS2 coat protein. In words: apparent KD of MS2 coat protein; higher = weaker reporter binding. Conditions: Eterna round: R107. The method, then:
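RNA-MaP round R107: designed RNA switches with theophylline, tryptophan, arginine or FMN aptamers are transcribed on-chip within common flanks. They are titrated with SNAP-549-labelled MS2 coat protein in RNA-MaP buffer (100 mM Tris pH 7.5, 80 mM KCl, 4 mM MgCl2), without ligand or with the indicated ligand. Median apparent KD per design.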

Setting [1] is: input ligand: theophylline 20 uM.
Setting [2] is: input ligand: theophylline 2 mM.
The mark [3] stands for this setting: input ligand: tryptophan 2.4 mM.

For “ACUAGAGGUGGAAGGAGCGGGAGACAUGAGGAUCACCCAUGUGAAGUUUCGAGAGGAUCAUCCCAGGUAGGUCGCCAUGUCGAAA [vvbvmullin]”, the “apparent KD of MS2 coat protein” value (input ligand: arginine 13.2 mM) stood at 35.3 nM; the “apparent KD of MS2 coat protein” value (input ligand: none) turned out to be 27.4 nM; the “apparent KD of MS2 coat protein” value under setting [1] turned out to be 46.9 nM; the “apparent KD of MS2 coat protein” value under setting [2] is 61.6 nM; the “apparent KD of MS2 coat protein” value under setting [3] was found to be 43.7 nM.

“AGACAUGAGGAUCACCCAUGUAGCACGGAUACCAGAUCCAGAUUUAUCCCUUGGCAGCUGUGGUACAGCGUUGCAACGCUCCUAG [Exclusion - Theophylline A (Freestyle 16)]”: the “apparent KD of MS2 coat protein” value turned out to be 17.6 nM (input ligand: arginine 13.2 mM), 23.2 nM under setting [1] and 17.1 nM under setting [3].

“AGACGAGAAGAGGAUUACCCAUGUACAGAAGGAGCGUCGUUGACGACAGGUAGGUCGCUGAGAACAUGAGGAUCACCCAUGUUGA [Arg A Ex t1]”: the “apparent KD of MS2 coat protein” value reads like this: (input ligand: arginine 13.2 mM) 29.9 nM; (input ligand: none) 42.9 nM; under setting [1], 53.9 nM; under setting [2], 39.8 nM; under setting [3], 36 nM.

With “AGAUUCGACACGGCCGCCACUCGAGACGGAUUUCCGAGUGUCGAACAUGAGGAUCACCCAUGUCCGAGGACCGGGUGUUGAGUCU [XTryp B #10]”, the “apparent KD of MS2 coat protein” value came out at 24.3 nM (input ligand: arginine 13.2 mM), 42.8 nM under setting [1] and 51.1 nM under setting [2].

Turning to “AGAUUCGACACGGCCGCCACUCGUGACGGAUUUCCGAGUGUCGAACAUGAGGAUCACCCAUGUCCGAGGACCGGGUGUUGAGUCU [XTryp B #12]”, the “apparent KD of MS2 coat protein” value is 33.7 nM (input ligand: arginine 13.2 mM), 43.8 nM under setting [1] and 55.9 nM under setting [2].

“AGAUUCGACACGGCCGCCACUCGUGGAGGAUUUCCGAGUGUCGAACAUGAGGAUCACCCAUGUACGAGGACCGGGUGUUGAGUCU [XTryp B #14]”: the “apparent KD of MS2 coat protein” value (input ligand: arginine 13.2 mM) came to 21.1 nM, the “apparent KD of MS2 coat protein” value under setting [1] is 43.4 nM and the “apparent KD of MS2 coat protein” value under setting [2] came out at 32.2 nM.

Take “AGCACUGUGACGGCCGCCACUACAUAACAUGGGUGGUCAGGUUCAUUACAUGAGGAUCACCCAUGUAGGACCGGGUCUCAGUGCA [Omei Trp Exc B A v11]”: the “apparent KD of MS2 coat protein” value (input ligand: arginine 13.2 mM) was determined as 12.1 nM, the “apparent KD of MS2 coat protein” value under setting [1] stood at 17.7 nM and the “apparent KD of MS2 coat protein” value under setting [2] was found to be 12.6 nM.

As to “AGCCACUCGAGUGAUCCUCACGAGUGGCAACGAGGACCGGUACGGCCGCCACUCGAAUAAACAUGAGGAUCACCCAUGUAAUAAU [T''-M-T'-T-MS2]”, the “apparent KD of MS2 coat protein” value reads like this: (input ligand: arginine 13.2 mM) 13.6 nM; under setting [1], 152 nM; under setting [2], 683 nM.

Consider “AGCCCUGUACUAGAUACCAGCUACAUGAGGAUCACCCAUGUGCGUCAAGACUGACUGUGUGGCCCUUGGCAGCUGCUCGCAUGUA [Exclusion - Theophylline B (Freestyle 1)]”, for which the “apparent KD of MS2 coat protein” value was found to be 50.6 nM (input ligand: arginine 13.2 mM), 191 nM under setting [1] and 168 nM under setting [3].

Turning to “AGCGCUAUGCAUGAUACCAGCUACAUGAGGAUCACCCAUGUGCGUCAGAAAUGACUGUGUAGCCCUUGGCAGCAUAAAGCAUGUA [Exclusion - Theophylline B (Freestyle 9)]”, the “apparent KD of MS2 coat protein” value (input ligand: arginine 13.2 mM) turned out to be 19.4 nM, the “apparent KD of MS2 coat protein” value under setting [1] was 24.1 nM and the “apparent KD of MS2 coat protein” value under setting [3] worked out at 17.2 nM.

Regarding “AGCGGAACGGAAGGGUCCCAAAAUUGUGAUACCAGCCUUGAAUCCGGCCCUUGGCAGCACAUGAGGAUCACCCAUGUACUGCGAU [Laanor]”, the “apparent KD of MS2 coat protein” value is 11.2 nM (input ligand: arginine 13.2 mM), 19.2 nM under setting [1] and 12.8 nM under setting [3].

Regarding “AGCUCGACUCGCAGCUGGAUGCCCGCUUGCCGAGGACCGGUACGGCCGCCACUCGUCACUCGACAUGAGGAUCACCCAUGUGAUA [theeternabot_exclusion_MS2_Trp_A_32]”, the “apparent KD of MS2 coat protein” value reads like this: (input ligand: arginine 13.2 mM) 36.3 nM; under setting [1], 136 nM; under setting [2], 140 nM.

With “AGGAGACAUGAGGAUCACCCAUGUCCAGAUACCAGAAUGUCUUUGUUCCCUUGGCAGCUGUGGAAAUCUGACCUGCCUCGGUCUG [theeternabot_sameState_MS2_Theo_A_31]”, the “apparent KD of MS2 coat protein” value runs as follows: (input ligand: arginine 13.2 mM) 14.6 nM; under setting [1], 17.9 nM; under setting [3], 15.2 nM.

Regarding “AGUAGACACGCGGCCGCCACUUGAGGAUCACCCAGGUGGUGUGUACUUGAAAACAAGUGCACAUCAAGGACCGGGCGUGUCUACA [Omei Tryp B SS D v2]”, the “apparent KD of MS2 coat protein” value worked out at 12.9 nM (input ligand: arginine 13.2 mM), 17.1 nM under setting [1], 13.9 nM under setting [2] and 27.3 nM under setting [3].

Regarding “AGUUCCAGGUCGGCCGCCACUGGCAUGGCCGGUCCUCGGACUUACAUGAGGAUCACCCAUGUGAACAGGACCGGGACCGCAUGGG [Exclusion Tryptophan B GF 24]”, the “apparent KD of MS2 coat protein” value amounted to 26.1 nM (input ligand: arginine 13.2 mM), 46.1 nM under setting [1] and 57.2 nM under setting [2].

Take “AUAAAUAUAACCGAUACCAGCCUUAUACAUGAGGAUCACCCAUGUUAUGCUUCCUUUCUUGGCCCUUGGCAGCGGAAAUGGGUAA [SSTheo B #13]”: the “apparent KD of MS2 coat protein” value is, setting by setting: (input ligand: arginine 13.2 mM) 36.2 nM; under setting [1], 48.4 nM; under setting [3], 44.8 nM.

Regarding “AUAACAUGAGGAUCACCCAUGUAAGCUGAAGGAGCGCUGGAAACAGCAGGUAGGUCGCAGCGGCGACCUUCCUCAUGAAGGUCGC [(M1)-(M2)-(Arg1)-(Arg2)-(A)'-(M)'-(A)''_Design5]”, the “apparent KD of MS2 coat protein” value is 19.2 nM (input ligand: arginine 13.2 mM); 14.2 nM (input ligand: none); 25.6 nM under setting [1]; 17 nM under setting [2]; 18.5 nM under setting [3].

In the case of “AUAAUGGGUAUCGGAUUAUCAUGGAAUGAUACCAGAUACUUAGAUAUCCCUUGGCAGCAUGAGGACAUGAGGAUCACCCAUGUAU [#03 Exclusion-TheophyllineA]”, the “apparent KD of MS2 coat protein” value worked out at 31.3 nM (input ligand: arginine 13.2 mM), 56.9 nM under setting [1] and 54.9 nM under setting [3].

Regarding “AUACAUGAGGAUCACCCAUGUGAUGGCCGGCGAGGACCGGUACGGCCGCCACUCGUGAUCCGUCCUGAAAGCAAAGCUUCCAGCA [Terion]”, the “apparent KD of MS2 coat protein” value reads like this: (input ligand: arginine 13.2 mM) 37.4 nM; under setting [1], 273 nM; under setting [2], 437 nM.
